# Test results reported in patent publication US20210107943A1 (UNIVERSITY OF FLORIDA RESEARCH FOUNDATION, published 2021).
# B1: CATCH(+) peptide, Ac-QQKFKFKFKQQ-Am (peptide)
# peptide: Ac-QQKFKFKFKQQ-NH2
# notes: also called CATCH (4+); positive peptide segment
# B2: CATCH(-) peptide, Ac-EQEFEFEFEQE-Am (peptide)
# peptide: Ac-EQEFEFEFEQE-NH2
# notes: also called CATCH (6-); negative peptide segment
# B3: mCATCH(+) peptide, Ac-QQKPKPKPKQQ-Am (peptide)
# peptide: Ac-QQKPKPKPKQQ-NH2
# notes: Mutant with proline in place of the phenylalanine residues; also called mutant of CATCH(+)
# Tests used:
# [1] = biological target: the molecule itself; assay: TEM and circular dichroism of the peptide alone (self-assembly)
# [2] = biological target: T1, mCATCH(-) peptide, Ac-EQEPEPEPEQE-Am; assay: ThT fluorimetry, equimolar mixture
# T1 construct: Mutant with proline in place of the phenylalanine residues; also called mutant of CATCH(-)
# T1 peptide: Ac-EQEPEPEPEQE-NH2
# Protocol: (§1) Thioflavin T (ThT) Assay. A ThT stock solution containing 0.8 mg/mL of thioflavin T (Acros) in 1× phosphate-buffered saline (PBS) (137 mM NaCl, 2.7 mM, KCl, 10 mM Na₂HPO₄ and 1.8 mM KH₂PO₄, pH 7.4) was filtered through a 0.22 μm syringe filter (Millex), and further diluted 1:10 with 1× PBS to create a working solution. Peptide samples were mixed with the ThT working solution at a 1:10 (v/v) ratio, added to a black 96-well plate (Corning), and analyzed with a Molecular Devices SpectraMax M3 spectrophotometer (excitation 450, emission 482 nm). All samples were run in triplicate, with the mean and standard deviation of these samples reported.
# (§2) Nanofiber preparation. Stock solutions of CATCH(−) and CATCH(+) were prepared by dissolving lyophilized peptides in 1× PBS to a final concentration of 500 μM. Peptide concentration was confirmed using Phe absorbance (λ=260 nm). CATCH peptides were then mixed at a 1:1 (v/v) ratio and incubated overnight for formation of nanofibers, unless stated otherwise.
# [3] = biological target: B3; assay: ThT fluorimetry, equimolar mixture
# Protocol: as §1, §2
# [4] = biological target: the molecule itself; assay: ThT fluorescence microscopy and the data taken together (self-assembly)
# Protocol: For samples containing only CATCH peptides, ThT was mixed with samples at a 1:1 (v/v) ratio, 5 μL of each sample was placed onto a glass microscope slide, samples were covered with a cover slip, and samples were viewed using a GFP filter set. For samples containing CATCH peptides and CATCH(−)GFP, 0.75 μM CATCH(−)GFP was mixed with 200 μM CATCH(+) and 187.5 μM CATCH(−), unless otherwise specified. 5 μL of each sample was placed onto a glass microscope slide, samples were covered with a cover slip, and samples were viewed using a GFP filter set. For all samples, images were collected using an exposure time of 4 s.
# [5] = biological target: T1, mCATCH(-) peptide, Ac-EQEPEPEPEQE-Am; assay: ThT fluorimetry, kinetic
binder,measurement,setting,value
B1,binding result,[1],no binding
same,binding result,[2],no binding
B2,binding result,[3],no binding
same,binding result,[4],no binding
B3,binding result,[5],no binding
